Assay results taken from patent US20240108766A1 (Bayer, published 2024).

T1: human LRRC15 extracellular domain with C-terminal His tag (human, UniProt Q8TF66 22-538)
T1 construct: Recombinant, made in HEK293; the entry holds the extracellular domain and the His tag; SPR analyte; also called TPP-1545; hLRRC15 CT-His
T1 sequence: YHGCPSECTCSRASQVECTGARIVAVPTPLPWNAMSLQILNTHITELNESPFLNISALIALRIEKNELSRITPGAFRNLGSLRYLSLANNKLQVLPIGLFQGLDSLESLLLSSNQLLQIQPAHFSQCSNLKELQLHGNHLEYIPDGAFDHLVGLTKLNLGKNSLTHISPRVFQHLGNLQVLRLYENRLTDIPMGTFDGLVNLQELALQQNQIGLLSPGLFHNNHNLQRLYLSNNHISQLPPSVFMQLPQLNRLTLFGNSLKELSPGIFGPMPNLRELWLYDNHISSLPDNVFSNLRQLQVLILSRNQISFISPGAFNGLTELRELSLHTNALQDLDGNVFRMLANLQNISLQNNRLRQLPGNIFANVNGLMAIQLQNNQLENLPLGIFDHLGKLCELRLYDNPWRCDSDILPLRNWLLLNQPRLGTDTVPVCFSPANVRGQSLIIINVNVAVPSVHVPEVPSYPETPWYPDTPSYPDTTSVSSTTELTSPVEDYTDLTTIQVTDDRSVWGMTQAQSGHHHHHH

T2: cynomolgus (Macaca fascicularis) LRRC15 extracellular domain with C-terminal His tag (cynomolgus monkey (Macaca fascicularis), UniProt Q8TF66 22-538 (human entry))
T2 construct: Recombinant, made in HEK293; the entry holds the extracellular domain and the His tag; SPR analyte; also called TPP-9046
T2 chain: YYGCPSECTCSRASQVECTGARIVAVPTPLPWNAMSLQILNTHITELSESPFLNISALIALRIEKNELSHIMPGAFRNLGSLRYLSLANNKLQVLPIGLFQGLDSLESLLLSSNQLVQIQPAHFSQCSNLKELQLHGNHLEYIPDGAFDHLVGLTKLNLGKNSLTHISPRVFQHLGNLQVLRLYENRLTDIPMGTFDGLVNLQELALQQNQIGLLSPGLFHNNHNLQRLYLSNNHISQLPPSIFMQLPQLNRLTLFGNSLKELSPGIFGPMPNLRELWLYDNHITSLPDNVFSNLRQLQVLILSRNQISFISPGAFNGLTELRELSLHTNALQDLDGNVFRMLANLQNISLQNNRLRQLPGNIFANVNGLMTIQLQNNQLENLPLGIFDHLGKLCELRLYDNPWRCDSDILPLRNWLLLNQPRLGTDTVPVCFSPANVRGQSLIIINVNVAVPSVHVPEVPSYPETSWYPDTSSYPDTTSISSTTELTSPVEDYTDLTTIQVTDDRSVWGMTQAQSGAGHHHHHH

T3: human LRRC15 expressed on cells (human, UniProt Q8TF66 22-581)
T3 construct: whole, on cells; On HEK293 cells transfected with LRRC15/ZsGreen1 (Retrogenix), on HT29 cells transfected with human LRRC15, and endogenous on Saos-2; also called LRRC15/ZsGreen1 transfected HEK293 cells; HT29-LRRC15
T3 sequence (looked up): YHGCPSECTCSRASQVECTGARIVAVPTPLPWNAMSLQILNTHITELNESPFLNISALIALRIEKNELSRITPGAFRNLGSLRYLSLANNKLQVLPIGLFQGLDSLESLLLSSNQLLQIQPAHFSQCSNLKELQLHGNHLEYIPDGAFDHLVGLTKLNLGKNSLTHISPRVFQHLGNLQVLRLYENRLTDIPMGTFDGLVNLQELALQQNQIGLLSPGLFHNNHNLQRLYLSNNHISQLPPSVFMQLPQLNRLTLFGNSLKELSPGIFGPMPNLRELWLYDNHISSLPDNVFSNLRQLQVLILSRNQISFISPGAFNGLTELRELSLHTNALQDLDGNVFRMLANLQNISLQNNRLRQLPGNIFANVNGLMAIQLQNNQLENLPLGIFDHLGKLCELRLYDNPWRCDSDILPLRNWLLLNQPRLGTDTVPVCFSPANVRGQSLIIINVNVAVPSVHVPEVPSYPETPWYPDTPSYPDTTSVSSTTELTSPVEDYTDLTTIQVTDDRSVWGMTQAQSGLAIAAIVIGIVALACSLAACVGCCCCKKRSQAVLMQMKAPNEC


Columns and labels:
[1] = target: T1, human LRRC15 extracellular domain with …; assay: SPR Biacore T200, antibody captured, LRRC15 analyte, 20°C
Description: To assess if anti-LRRC-15 antibodies show a difference in binding at different temperatures, binding assays were conducted using surface plasmon resonance (SPR). Binding assays were performed on a Biacore T200 instrument at temperatures of 10° C., 20° C., 25° C. and 37° C. with assay buffer HBS EP+, 1 mg/ml BSA (bovine serum albumine), 300 mM NaCl, 0.05% NaN₃. Antibodies were captured via anti-human Fc IgGs covalently amine coupled to a CM5 sensor chip and human LRRC15 was used as an analyte in a concentration series from 1.56-200 nM in multi cycle kinetics mode. Pre-experiments were conducted to have an equal capture level at each temperature. Obtained sensorgrams were fitted to a 1:1 Langmuir binding model to derive kinetic data.

[2] = target: T2, cynomolgus (Macaca fascicularis) LRRC15 …; assay: SPR (Example 6), overview table, repeats Table 9; head prints [M^-1]
Description: (§1) To assess the binding kinetics and affinity of anti-LRRC15 antibodies as well as their species cross-reactivity profile, binding assays were conducted using surface plasmon resonance (SPR). Binding assays were performed on a Biacore T200 instrument at 25° C. using assay buffer HBS EP+, 1 mg/ml BSA, 300 mM NaCl, 0.05% NaN3. Antibodies were captured via anti-human Fc IgGs covalently amine coupled to a CM5 sensor chip and human, mouse and cynomolgus LRRC15 were used as analytes in a concentration series from 1.56-200 nM in multi cycle kinetics mode. […] Obtained sensorgrams were fitted to a 1:1 Langmuir binding model to derive kinetic data.

[3] = target: T1, human LRRC15 extracellular domain with …; assay: as above
Description: as §1

[4] = target: T3, human LRRC15 expressed on cells; assay: flow cytometry, transfected HEK293, 0.004 µg/ml
[5] = target: T3, human LRRC15 expressed on cells; assay: flow cytometry, transfected HEK293, 0.1 µg/ml
[6] = target: T3, human LRRC15 expressed on cells; assay: flow cytometry, transfected HEK293, 62.5 µg/ml
[7] = target: T3, human LRRC15 expressed on cells; assay: flow cytometry, transfected HEK293, 0.5 µg/ml
[8] = target: T3, human LRRC15 expressed on cells; assay: flow cytometry, transfected HEK293, 2.5 µg/ml

Binder	Kd [1] [nM]	Kd [2] [nM]	Kd [3] [nM]	Median Fluorescence AF647 [4]	Median Fluorescence AF647 [5]	Median Fluorescence AF647 [6]	Median Fluorescence AF647 [7]	Median Fluorescence AF647 [8]
TPP-14389 (antibody, human IgG1, kappa, V domains shown, also called 13612-rec02-hIgG1Kappa) VH: EVQLLESGGGLVQPGGSLRLSCAASGFTFSGYMMSWVRQAPGKGLEWVSGIYPSPGYTYYADSVKGRFTISRDNSKNTLYLQMNSLRAEDTAVYYCAREKASDLFGSYSEALDYWGQGTLVTVSS VL: DIQMTQSPDSLSASVGDRVTITCRASQDVGSWLAWYQQKPGKAPKLLIFAASSLESGIPSRFSGSGSGTDFTLTISSLQPEDFATYYCQQANGFPLTFGGGTKVEIKR	2	9	5.9	–	–	–	–	–
TPP-12942 (antibody, human IgG1, kappa, V domains shown, Prior art humanized IgG1 kappa antibody, used as comparator; also called huM25; huM25-hIgG1Kappa) VH: EVQLVQSGAEVKKPGASVKVSCKASGYKFSSYWIEWVKQAPGQGLEWIGEILPGSDTTNYNEKFKDRATFTSDTSINTAYMELSRLRSDDTAVYYCARDRGNYRAWFGYWGQGTLVTVSS VL: DIQMTQSPSSLSASVGDRVTITCRASQDISNYLNWYQQKPGGAVKFLIYYTSRLHSGVPSRFSGSGSGTDYTLTISSLQPEDFATYFCQQGEALPWTFGGGTKVEIKR	–	36	25	19800	213000	620000	524000	746000
TPP-17078 (antibody, human IgG1, kappa, V domains shown, also called 438H-M308-H05-hIgGkappa) VH: EVQLVQSGAEVKKPGASVKVSCKASGYKFSSYWIEWVKQAPGQGLEWIGEILPGSDTTNYNEKFKDRATFTSDTSINTAYMELSRLRSDDTAVYYCARDRGNYRAWFGYWGQGTLVTVSS VL: DIQMTQSPSSLSASVGDRVTITCRASQSISSYLNWYQQKPGGAPKFLIYYASSLQSGVPSRFSGSGSGTDYTLTISSLQPEDFATYYCQQGFSLPWTFGGGTKVEIKR	0.88	1.8	1.7	27600	284000	621000	527000	777000
TPP-17421 (antibody, human IgG1, kappa, V domains shown, also called 438H-M306-C11-hIgG1Kappa) VH: EVQLVQSGAEVKKPGASVKVSCKASGYKFSSYWIEWVKQAPGQGLEWIGEILPGSDWTNYNEKFKDRATFTSDTSINTAYMELSRLRSDDTAVYYCARDRGNYRAWFQYWGQGTLVTVSS VL: DIQMTQSPSSLSASVGDRVTITCRASQSISSYLNWYQQKPGGAPKFLIYYASSLQSGVPSRFSGSGSGTDYTLTISSLQPEDFATYYCQQGLELPWTFGGGTKVEIKR	0.82	0.91	0.96	13100	102000	650000	391000	649000
